Experimental data: PMC4456664 (2015)

Target: BSA (Bos taurus, UniProt P02769)
Assay: ITC

BSA, sequence (P02769 25-607): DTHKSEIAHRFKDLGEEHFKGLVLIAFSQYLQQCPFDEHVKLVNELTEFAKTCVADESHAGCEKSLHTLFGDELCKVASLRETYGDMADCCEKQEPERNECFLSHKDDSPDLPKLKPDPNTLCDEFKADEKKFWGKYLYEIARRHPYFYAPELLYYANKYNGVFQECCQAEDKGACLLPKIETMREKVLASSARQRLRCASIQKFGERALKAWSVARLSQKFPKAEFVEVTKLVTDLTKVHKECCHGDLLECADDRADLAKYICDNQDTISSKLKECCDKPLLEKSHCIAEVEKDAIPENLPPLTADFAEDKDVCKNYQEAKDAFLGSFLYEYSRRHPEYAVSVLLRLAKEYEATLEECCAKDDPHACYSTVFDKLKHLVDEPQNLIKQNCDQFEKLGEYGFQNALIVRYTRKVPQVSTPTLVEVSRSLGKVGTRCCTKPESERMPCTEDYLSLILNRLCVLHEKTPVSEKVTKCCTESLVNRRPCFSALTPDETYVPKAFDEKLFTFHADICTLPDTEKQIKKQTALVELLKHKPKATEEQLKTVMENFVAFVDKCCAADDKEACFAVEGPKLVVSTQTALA

B1: PYL10 (protein)
chain: MNGDETKKVESEYIKKHHRHELVESQCSSTLVKHIKAPLHLVWSIVRRFDEPQKYKPFISRCVVQGKKLEVGSVREVDLKSGLPATKSTEVLEILDDNEHILGIRIVGGDHRLKNYSSTISLHSETIDGKTGTLAIESFVVDVPEGNTKEETCFFVEALIQCNLNSLADVTERLQAESMEKKI
  Kd: 3000 nM
